Tests used:
[1] = molecular target: T1, 3T3 cells that over-express human cMet (Homo sapiens, UniProt P08581); test: Whole cell ELISA of peptide-displaying phage; type: cell-based; conditions: phage isolate; 3T3 cells expressing human cMet vs. non-expressing 3T3 cells
T1 construct: expressed in transfected cells; host or cells: 3T3 cells
Outline: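 3T3 cells over-expressing human cMet seeded 10^5/well, pelleted and fixed with 0.1% glutaraldehyde 12 min at 37 °C. Blocked peptide-displaying phage bound 1 h at room temperature; after PBST wash, bound phage detected with HRP-conjugated anti-M13 antibody.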

[2] = molecular target: cMet-Fc fusion protein (Homo sapiens, UniProt P08581); test: Protein phage ELISA: peptide-displaying phage binding to soluble cMet-Fc versus TRAIL-Fc; conditions: phage isolate; cMet-Fc vs. TRAIL-Fc
cMet-Fc fusion protein, sequence (P08581 25-307 limits assumed): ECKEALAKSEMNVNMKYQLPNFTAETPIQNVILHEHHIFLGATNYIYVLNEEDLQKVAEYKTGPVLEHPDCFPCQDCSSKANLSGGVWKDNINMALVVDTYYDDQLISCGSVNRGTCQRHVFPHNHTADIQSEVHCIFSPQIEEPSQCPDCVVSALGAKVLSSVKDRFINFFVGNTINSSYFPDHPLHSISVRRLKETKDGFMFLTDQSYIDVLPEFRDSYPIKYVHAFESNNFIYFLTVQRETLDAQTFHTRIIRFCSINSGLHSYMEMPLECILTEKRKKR
cMet-Fc fusion protein, sequence (P08581 with tags, fused parts or gaps limits assumed): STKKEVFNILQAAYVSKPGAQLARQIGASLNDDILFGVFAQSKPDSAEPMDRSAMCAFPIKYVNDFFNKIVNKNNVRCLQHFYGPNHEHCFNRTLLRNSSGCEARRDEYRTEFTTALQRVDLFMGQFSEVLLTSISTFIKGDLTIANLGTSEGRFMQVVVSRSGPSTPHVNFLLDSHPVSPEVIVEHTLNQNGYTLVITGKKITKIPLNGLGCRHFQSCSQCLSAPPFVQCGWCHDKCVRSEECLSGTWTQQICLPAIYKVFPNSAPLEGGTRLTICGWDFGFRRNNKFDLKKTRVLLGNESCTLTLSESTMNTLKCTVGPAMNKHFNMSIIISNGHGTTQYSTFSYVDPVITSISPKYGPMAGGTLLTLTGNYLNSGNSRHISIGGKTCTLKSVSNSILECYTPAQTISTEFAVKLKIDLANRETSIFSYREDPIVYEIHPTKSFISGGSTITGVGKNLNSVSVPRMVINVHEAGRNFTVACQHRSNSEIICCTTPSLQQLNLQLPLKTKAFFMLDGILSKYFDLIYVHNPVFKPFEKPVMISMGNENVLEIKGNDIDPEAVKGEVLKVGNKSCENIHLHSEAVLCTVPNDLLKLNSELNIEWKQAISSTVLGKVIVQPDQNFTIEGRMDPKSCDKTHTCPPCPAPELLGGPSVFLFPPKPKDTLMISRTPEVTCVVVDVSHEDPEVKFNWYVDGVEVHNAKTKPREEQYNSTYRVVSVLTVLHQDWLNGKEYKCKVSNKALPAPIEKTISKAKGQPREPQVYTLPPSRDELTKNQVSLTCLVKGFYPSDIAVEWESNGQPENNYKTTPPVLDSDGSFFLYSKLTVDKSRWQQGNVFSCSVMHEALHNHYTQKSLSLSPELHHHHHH
Outline: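 Plates coated with 0.5 μg/mL cMet-Fc or, as background, TRAIL-Fc, then blocked with 3% BSA in PBST. Peptide-displaying phage bound 2 h at room temperature. Detection with HRP-anti-M13 antibody.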

T1 sequence (P08581 25-1390): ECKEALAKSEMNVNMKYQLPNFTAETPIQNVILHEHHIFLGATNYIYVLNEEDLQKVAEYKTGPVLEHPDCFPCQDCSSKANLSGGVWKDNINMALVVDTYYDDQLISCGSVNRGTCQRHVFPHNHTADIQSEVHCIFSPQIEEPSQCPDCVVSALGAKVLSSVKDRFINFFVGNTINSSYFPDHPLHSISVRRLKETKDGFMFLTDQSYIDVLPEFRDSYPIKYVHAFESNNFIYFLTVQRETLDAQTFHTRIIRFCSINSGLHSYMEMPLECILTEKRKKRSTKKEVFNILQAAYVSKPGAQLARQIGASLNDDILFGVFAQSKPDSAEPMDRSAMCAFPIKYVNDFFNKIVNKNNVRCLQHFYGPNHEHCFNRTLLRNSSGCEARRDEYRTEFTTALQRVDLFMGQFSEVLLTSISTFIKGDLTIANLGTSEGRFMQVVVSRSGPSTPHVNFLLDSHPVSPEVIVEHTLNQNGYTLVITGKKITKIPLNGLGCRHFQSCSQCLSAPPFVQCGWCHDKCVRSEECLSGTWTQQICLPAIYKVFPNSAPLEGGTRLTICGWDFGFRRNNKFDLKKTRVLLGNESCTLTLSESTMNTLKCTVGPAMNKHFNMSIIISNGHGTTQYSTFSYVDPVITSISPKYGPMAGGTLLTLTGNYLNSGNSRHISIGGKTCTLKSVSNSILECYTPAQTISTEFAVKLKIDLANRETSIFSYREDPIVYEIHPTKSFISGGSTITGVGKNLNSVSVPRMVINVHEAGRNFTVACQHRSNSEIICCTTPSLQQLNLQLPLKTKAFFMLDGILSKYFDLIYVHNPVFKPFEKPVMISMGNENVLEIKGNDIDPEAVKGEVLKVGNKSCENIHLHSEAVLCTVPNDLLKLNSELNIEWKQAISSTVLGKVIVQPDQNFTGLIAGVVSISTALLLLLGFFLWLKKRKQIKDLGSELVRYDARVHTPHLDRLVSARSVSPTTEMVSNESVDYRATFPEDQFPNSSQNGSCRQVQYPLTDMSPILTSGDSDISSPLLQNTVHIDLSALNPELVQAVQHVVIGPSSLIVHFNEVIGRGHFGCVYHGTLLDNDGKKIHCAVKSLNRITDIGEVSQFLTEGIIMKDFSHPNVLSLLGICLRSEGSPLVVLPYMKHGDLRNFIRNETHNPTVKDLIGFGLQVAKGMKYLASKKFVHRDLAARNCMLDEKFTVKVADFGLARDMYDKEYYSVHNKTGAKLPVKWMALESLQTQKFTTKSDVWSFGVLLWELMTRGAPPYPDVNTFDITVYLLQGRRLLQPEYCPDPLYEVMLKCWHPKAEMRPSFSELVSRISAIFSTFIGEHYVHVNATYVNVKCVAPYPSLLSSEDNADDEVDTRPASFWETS

Sequence | WC ELISA [1] [fold over background] | Protein ELISA [2] [fold over background]
AGYSVCKGYPSFECAFFGT (Synthetically generated cMet-binding peptide sequence) [SEQ ID NO: 075] | 1.33 | 5.8
AGYWDCKGPPHFFCEWHGT (Synthetically generated cMet-binding peptide sequence) [SEQ ID NO: 080] | 1.23 | 7.4
AGYWHCKGPPHFACEFHGT (Synthetically generated cMet-binding peptide sequence) [SEQ ID NO: 077] | 1.40 | 5.5
AGYWSCAGPPMFMCTWQGT (Synthetically generated cMet-binding peptide sequence) [SEQ ID NO: 079] | 1.27 | 10.7
AGYYGCKGPPTFECQWMGT (Synthetically generated cMet-binding peptide sequence) [SEQ ID NO: 049] | 1.33 | 13.8
AGYYHCIDDFPQCKWMGT (Synthetically generated cMet-binding peptide sequence) [SEQ ID NO: 017] | 1.37 | 3.9
AQAEWVITSEEFYWKMADFGPP (Synthetically generated cMet-binding peptide sequence) [SEQ ID NO: 478] | 1.23 | 3.4
AQAYEWWADESIFNHGYYWGHQ (Synthetically generated cMet-binding peptide sequence) [SEQ ID NO: 470] | 1.20 | 3.8
AQDNTADQMFNGFHVLAMYMV (Synthetically generated cMet-binding peptide sequence) [SEQ ID NO: 481] | 1.37 | 3.3
AQDPGFSKHSMGHGYPSKMNWG (Synthetically generated cMet-binding peptide sequence) [SEQ ID NO: 471] | 1.27 | 3.7
AQELFQILEKQMWSDFMEWATP (Synthetically generated cMet-binding peptide sequence) [SEQ ID NO: 474] | 1.23 | 3.6
AQEWQTWTWNMIEVISENKTP (Synthetically generated cMet-binding peptide sequence) [SEQ ID NO: 468] | 1.40 | 3.8
AQFDRYWHFAWMDVSFSSGQSG (Synthetically generated cMet-binding peptide sequence) [SEQ ID NO: 465] | 1.20 | 4.3
AQFMYEKEHYVMSISLPGLWFY (Synthetically generated cMet-binding peptide sequence) [SEQ ID NO: 486] | 1.63 | 3.0
AQFPLEFDVPNFSYHWLVSFNP (Synthetically generated cMet-binding peptide sequence) [SEQ ID NO: 460] | 1.27 | 5.6
AQFSGLVMYGRTHEVQWTFGSM (Synthetically generated cMet-binding peptide sequence) [SEQ ID NO: 477] | 1.30 | 3.5

Sequence | WC ELISA [1] [fold over background] | Protein ELISA [2] [fold over background]
AQGGRYPFYDTDWFKWEMYVL (Synthetically generated cMet-binding peptide sequence) [SEQ ID NO: 496] | 1.30 | 3.8
AQGIAWQLEWSYMPQSPPSFDR (Synthetically generated cMet-binding peptide sequence) [SEQ ID NO: 495] | 1.17 | 4.5
AQHGYLSPLKQYQMSHVEFWTY (Synthetically generated cMet-binding peptide sequence) [SEQ ID NO: 476] | 1.17 | 3.5
AQHMDPAEWDWFIRIYSPVVNP (Synthetically generated cMet-binding peptide sequence) [SEQ ID NO: 487] | 1.80 | 3.0
AQHVVTLTLIQMPFAFNFEPRM (Synthetically generated cMet-binding peptide sequence) [SEQ ID NO: 484] | 1.30 | 3.1
AQKTWFLEADLFQMFQEVTWQF (Synthetically generated cMet-binding peptide sequence) [SEQ ID NO: 490] | 1.40 | 3.0
AQLFQYLWHDDPQGAFFQLSMW (Synthetically generated cMet-binding peptide sequence) [SEQ ID NO: 483] | 1.23 | 3.1
AQMGHHWDVQWDYKLFHVARGD (Synthetically generated cMet-binding peptide sequence) [SEQ ID NO: 473] | 1.23 | 3.7
AQMWHRVHDPGYTFEVTWLWDN (Synthetically generated cMet-binding peptide sequence) [SEQ ID NO: 488] | 1.27 | 3.0
AQMYQTPDGVIGKFVDWMFN (Synthetically generated cMet-binding peptide sequence) [SEQ ID NO: 455] | 1.33 | 8.0
AQNAVVPPPMLWSIYWDYGREG (Synthetically generated cMet-binding peptide sequence) [SEQ ID NO: 457] | 1.37 | 7.0
AQQWMFQIHQSMAWPYEWIDSY (Synthetically generated cMet-binding peptide sequence) [SEQ ID NO: 494] | 1.23 | 3.9
AQRDYLFYWNDGSYQPWQVFVG (Synthetically generated cMet-binding peptide sequence) [SEQ ID NO: 493] | 1.30 | 5.5
AQSDHDHAHWGVKHWPFRRYQ (Synthetically generated cMet-binding peptide sequence) [SEQ ID NO: 482] | 1.20 | 3.1
AQVGESLDDGWTFFSDKWFDFF (Synthetically generated cMet-binding peptide sequence) [SEQ ID NO: 485] | 1.17 | 3.0

— patent US9845340B2, “Peptides that specifically bind HGF receptor (cMet) and uses thereof” (Dyax Corp., priority 2003, dated 2017)
